# Assay results taken from patent EP3196312B1, “EFFICIENT CONVERSION OF METHYLGLYOXAL INTO HYDROXYACETONE USING NOVEL ENZYMES AND APPLI CATIONS THEREOF” (Metabolic Explorer, priority 2016, dated 2017).
# B1: Escherichia coli YafB (2,5-diketo-D-gluconic acid reductase B, Uniprot P30863), SEQ ID NO: 99 (Escherichia coli K-12) (protein)
# chain: MAIPAFGLGTFRLKDDVVISSVITALELGYRAIDTAQIYDNEAAVGQAIAESGVPRHELYITTKIWIENLSKDKLIPSLKESLQKLRTDYVDLTLIHWPSPNDEVSVEEFMQALLEAKKQGLTREIGISNFTIPLMEKAIAAVGAENIATNQIELSPYLQNRKVVAWAKQHGIHITSYMTLAYGKALKDEVIARIAAKHNATPAQVILAWAMGEGYSVIPSSTKRKNLESNLKAQNLQLDAEDKKAIAALDCNDRLVSPEGLAPEWD
# B2: Hypocrea jecorina Gld2 (Glycerol 2-dehydrogenase (NADP(+)), Uniprot Q0GYU4), SEQ ID NO: 109 (Trichoderma reesei) (protein)
# chain: MASKTYTLNTGAKIPAVGFGTFANEGAKGETYAAVTKALDVGYRHLDCAWFYHNEDEVGDAVRDFLARRPDVKREDLFICTKVWNHLHEPEDVKWSAKNSCENLKVDYIDLFLVHWPIAAEKNSDRSVKLGPDGKYVINQALTENPEPTWRAMEELVESGLVKAIGVSNWTIPGLKKLLQIAKIKPAVNQIEIHPFLPNEELVAFCFENGILPEAYSPLGSQNQVPSTGERVRDNPTLKAVAERSGYSLAQILLAWGLKRGYVVLPKSSTPSRIESNFNIPELSDEDFEAIQQVAKGRHTRFVNMKDTFGYNVWPEEE
# B3: Escherichia coli YiaY (Probable alcohol dehydrogenase, Uniprot P37686), SEQ ID NO: 111 (Escherichia coli K-12) (protein)
# chain: MAASTFFIPSVNVIGADSLTDAMNMMADYGFTRTLIVTDNMLTKLGMAGDVQKALEERNIFSVIYDGTQPNPTTENVAAGLKLLKENNCDSVISLGGGSPHDCAKGIALVAANGGDIRDYEGVDRSAKPQLPMIAINTTAGTASEMTRFCIITDEARHIKMAIVDKHVTPLLSVNDSSLMIGMPKSLTAATGMDALTHAIEAYVSIAATPITDACALKAVTMIAENLPLAVEDGSNAKAREAMAYAQFLAGMAFNNASLGYVHAMAHQLGGFYNLPHGVCNAVLLPHVQVFNSKVAAARLRDCAAAMGVNVTGKNDAEGAEACINAIRELAKKVDIPAGLRDLNVKEEDFAVLATNALKDACGFTNPIQATHEEIVAIYRAAM
# B4: Bacillus subtilis YhdN (general stress protein 69, Uniprot P80874), SEQ ID NO: 3 (Bacillus subtilis subsp. subtilis str. 168) (protein)
# chain: MEYTSIADTGIEASRIGLGTWAIGGTMWGGTDEKTSIETIRAALDQGITLIDTAPAYGFGQSEEIVGKAIKEYGKRDQVILATKTALDWKNNQLFRHANRARIVEEVENSLKRLQTDYIDLYQVHWPDPLVPIEETAEVMKELYDAGKIRAIGVSNFSIEQMDTFRAVAPLHTIQPPYNLFEREMEESVLPYAKDNKITTLLYGSLCRGLLTGKMTEEYTFEGDDLRNHDPKFQKPRFKEYLSAVNQLDKLAKTRYGKSVIHLAVRWILDQPGADIALWGARKPGQLEALSEITGWTLNSEDQKDINTILENTISDPVGPEFMAPPTREEI
# B5: Dickeya zeae Adh3.2 (Group III alcohol dehydrogenase, Uniprot R4Z7U3), SEQ ID NO: 103 (Dickeya zeae) (protein)
# chain: MQNFTLHTPTKILFGEGQIAALADQIPADARILITYGGGSIKKNGVFDQVINALKGRNVVEFSGIEPNPTYETLMKAVEIVRKENIDFLLAVGGGSVADGTKFIAAAVNYKAAEDPWHILQTWGAHVESAIPLGVVLTLPATGSESNSGAVITRKSTGDKQAFMNPLVCPRFAVLDPVVTYTLPERQIANGVVDAFVHTVEQYLTYPVDAKVQDRFAEGLLLTLIEEGPRALKEQHNYNVRANVMWSATMALNGLIGAGVPQDWSTHMLGHEITAMHGLDHAQTLAIVLPAMLNERRVQKREKLLQYAERVWNLRDGSDDQRIDGAIAATRAFFEQMGVPTRLSDYQLDGSSIPALVAKLEEHGMTALGENKDITLDISKRVYEAAR
# B6: Escherichia coli YdhF (Oxidoreductase YdhF, Uniprot P76187), SEQ ID NO: 105 (Escherichia coli K-12) (protein)
# chain: MVQRITIAPQGPEFSRFVMGYWRLMDWNMSARQLVSFIEEHLDLGVTTVDHADIYGGYQCEAAFGEALKLAPHLRERMEIVSKCGIATTAREENVIGHYITDRDHIIKSAEQSLINLATDHLDLLLIHRPDPLMDADEVADAFKHLHQSGKVRHFGVSNFTPAQFALLQSRLPFTLATNQVEISPVHQPLLLDGTLDQLQQLRVRPMAWSCLGGGRLFNDDYFQPLRDELAVVAEELNAGSIEQVVYAWVLRLPSQPLPIIGSGKIERVRAAVEAETLKMTRQQWFRIRKAALGYDVP
# B7: Escherichia coli YahK (aldehyde reductase, Uniprot P75691), SEQ ID NO: 1 (Escherichia coli K-12) (protein)
# chain: MKIKAVGAYSAKQPLEPMDITRREPGPNDVKIEIAYCGVCHSDLHQVRSEWAGTVYPCVPGHEIVGRVVAVGDQVEKYAPGDLVGVGCIVDSCKHCEECEDGLENYCDHMTGTYNSPTPDEPGHTLGGYSQQIVVHERYVLRIRHPQEQLAAVAPLLCAGITTYSPLRHWQAGPGKKVGVVGIGGLGHMGIKLAHAMGAHVVAFTTSEAKREAAKALGADEVVNSRNADEMAAHLKSFDFILNTVAAPHNLDDFTTLLKRDGTMTLVGAPATPHKSPEVFNLIMKRRAIAGSMIGGIPETQEMLDFCAEHGIVADIEMIRADQINEAYERMLRGDVKYRFVIDNRTLTD
# B8: Escherichia coli YqhD (alcohol dehydrogenase, Uniprot Q46856), wild type, SEQ ID NO: 7 (Escherichia coli K-12) (protein)
# chain: MNNFNLHTPTRILFGKGAIAGLREQIPHDARVLITYGGGSVKKTGVLDQVLDALKGMDVLEFGGIEPNPAYETLMNAVKLVREQKVTFLLAVGGGSVLDGTKFIAAAANYPENIDPWHILQTGGKEIKSAIPMGCVLTLPATGSESNAGAVISRKTTGDKQAFHSAHVQPVFAVLDPVYTYTLPPRQVANGVVDAFVHTVEQYVTKPVDAKIQDRFAEGILLTLIEDGPKALKEPENYDVRANVMWAATQALNGLIGAGVPQDWATHMLGHELTAMHGLDHAQTLAIVLPALWNEKRDTKRAKLLQYAERVWNITEGSDDERIDAAIAATRNFFEQLGVPTHLSDYGLDGSSIPALLKKLEEHGMTQLGENHDITLDVSRRIYEAAR
# B9: Escherichia coli YeaE (Uncharacterized protein YeaE, Uniprot P76234), SEQ ID NO: 107 (Escherichia coli K-12) (protein)
# chain: MQQKMIQFSGDVSLPAVGQGTWYMGEDASQRKTEVAALRAGIELGLTLIDTAEMYADGGAEKVVGEALTGLREKVFLVSKVYPWNAGGQKAINACEASLRRLNTDYLDLYLLHWSGSFAFEETVAAMEKLIAQGKIRRWGVSNLDYADMQELWQLPGGNQCATNQVLYHLGSRGIEYDLLPWCQQQQMPVMAYSPLAQAGRLRNGLLKNAVVNEIAHAHNISAAQVLLAWVISHQGVMAIPKAATIAHVQQNAAVLEVELSSAELAMLDKAYPAPKGKTALDMV
# B10: Klebsiella pneumoniae BudC (Diacetyl reductase [(S)-acetoin forming], Uniprot Q48436), SEQ ID NO: 113 (Klebsiella pneumoniae) (protein)
# chain: MKKVALVTGAGQGIGKAIALRLVKDGFAVAIADYNDATAKAVASEINQAGGRAMAVKVDVSDRDQVFAAVEQARKTLGGFDVIVNNAGVAPSTPIESITPEIVDKVYNINVKGVIWGIQAAVEAFKKEGHGGKIINACSQAGHVGNPELAVYSSSKFAVRGLTQTAARDLAPLGITVNGYCPGIVKTPMWAEIDRQVSEAAGKPLGYGTAEFAKRITLGRLSEPEDVAACVSYLASPDSDYMTGQSLLIDGGMVFN
# B11: Gluconobacter oxydans Gld (putative oxidoreductase, Uniprot Q5FQJ0), SEQ ID NO: 5 (Gluconobacter oxydans 621H) (protein)
# chain: MASDTIRIPGIDTPLSRVALGTWAIGGWMWGGPDDDNGVRTIHAALDEGINLIDTAPVYGFGHSEEIVGRALAEKPNKAHVATKLGLHWVGEDEKNMKVFRDSRPARIRKEVEDSLRRLRVETIDLEQIHWPDDKTPIDESARELQKLHQDGKIRALGVSNFSPEQMDIFREVAPLATIQPPLNLFERTIEKDILPYAEKHNAVVLAYGALCRGLLTGKMNRDTTFPKDDLRSNDPKFQKPNFEKYLAAMDEFEKLAEKRGKSVMAFAVRWVLDQGPVIALWGARKPGQVSGVKDVFGWSLTDEEKKAVDDILARHVPNPIDPTFMAPPARD
# Legend:
# Test in all cases: Methylglyoxal reductase kinetic parameters of purified enzyme (NAD(P)H consumption at 340 nm)
# [1] = substrate: CC(=O)C=O; type: biochemical, Escherichia coli; details: other: substrate methylglyoxal 0.1-40 mM, pH 7.5
# Procedure: (§1) Except for the strain 18, the proteins were purified from the crude cell-extract by affinity on a Profinity column (BIORAD, Bio-Scale Mini Profinity exact cartridge 5 ml) according to the protocol recommended by the manufacturer. The crude extract was loaded on a 5 ml Profinity exact cartridge equilibrated with 100 mM potassium phosphate pH 7.6. The column was washed with 10 column volumes of the same buffer and incubated 30min with 100 mM potassium phosphate pH 7.6, 100 mM fluoride at room temperature. The protein was eluted from the column with 2 column volumes of 100 mM potassium phosphate pH 7.6. The tag remained tightly bound to the resin and the purified protein was released. The fractions containing the protein were pooled, concentrated and loaded on a gel filtration column (Superdex 200 10/300 GL column, GE Healthcare) equilibrated with different storage buffers (Table 3). Protein concentration was measured using the Bradford protein assay.
# (§2) Methylglyoxal reductase activity (MGR) was determined by measuring the consumption of NAD(P)H at 340 nm on a spectrophotometer at 30°C (λ340 = 6290 M^-1 cm^-1). The reaction mixture (1mL) containing assay buffer and purified enzyme was incubated for 5 min at 30°C. Then, 0.1-40 mM methylglyoxal was added to start the reaction. One unit of enzyme activity was defined as the amount of enzyme catalyzing the decrease of 1µmol of NAD(P)H per min. Kinetic parameters were determined with Sigmaplot.
# [2] = substrate: CC(=O)C=O; type: biochemical, Hypocrea jecorina; details: other: substrate methylglyoxal 0.1-40 mM, cofactor NADPH, 10mM sodium phosphate (pH 7), 30°C
# Procedure: as §1
# as §2, with “One unit of enzyme activity was defined as the amount of enzyme catalyzing the decrease of 1µmol of NAD(P)H per min.” left out
# [3] = substrate: CC(=O)C=O; type: biochemical, Bacillus subtilis; details: other: substrate methylglyoxal 0.1-40 mM, cofactor NADPH, 20mM Hepes (pH7.5) 0.1mM ZnSO4, 30°C, pH 7.5
# Procedure: as §1
# as §2, with “One unit of enzyme activity was defined as the amount of enzyme catalyzing the decrease of 1µmol of NAD(P)H per min.” left out
# [4] = substrate: CC(=O)C=O; type: biochemical, Dickeya zeae; details: other: substrate methylglyoxal 0.1-40 mM, cofactor NADPH, 20mM Hepes (pH7.5), 30°C, pH 7.5
# Procedure: as §1
# as §2, with “One unit of enzyme activity was defined as the amount of enzyme catalyzing the decrease of 1µmol of NAD(P)H per min.” left out
# [5] = substrate: CC(=O)C=O; type: biochemical, Klebsiella pneumoniae; details: other: substrate methylglyoxal 0.1-40 mM, cofactor NADH, 50 mM Imidazole (pH7), 30°C, pH 7.0
# Procedure: as §1
# as §2, with “One unit of enzyme activity was defined as the amount of enzyme catalyzing the decrease of 1µmol of NAD(P)H per min.” left out
# [6] = substrate: CC(=O)C=O; type: biochemical, Gluconobacter oxydans; details: other: substrate methylglyoxal 0.1-40 mM, cofactor NADPH, 20mM Hepes (pH7.5), 30°C, pH 7.5
# Procedure: as §1
# as §2, with “One unit of enzyme activity was defined as the amount of enzyme catalyzing the decrease of 1µmol of NAD(P)H per min.” left out
# [7] = cofactor NADPH, 20mM Hepes (pH7.5), 30°C
# [8] = cofactor NADH, 20mM Hepes (pH7.5) 0.1mM FeSO4, 30°C
protein,measurement,setting,value
B1,Km,[1]; [7],8.20 mM
same,kcat/Km,[1]; [7],2.06 mM⁻¹ s⁻¹
B2,Km,[2],7.7 mM
same,kcat/Km,[2],11.1 mM⁻¹ s⁻¹
B3,Km,[1]; [8],2.84 mM
same,kcat/Km,[1]; [8],0.34 mM⁻¹ s⁻¹
B4,Km,[3],0.64 mM
same,kcat/Km,[3],5.92 mM⁻¹ s⁻¹
B5,Km,[4],6.7 mM
same,kcat/Km,[4],0.17 mM⁻¹ s⁻¹
B6,Km,[1]; [7],21.8 mM
same,kcat/Km,[1]; [7],0.35 mM⁻¹ s⁻¹
B7,Km,[1]; [7],1.41 mM
same,kcat/Km,[1]; [7],8.3 mM⁻¹ s⁻¹
B8,Km,"[1]; cofactor NADPH, 20mM Hepes (pH7.5) 0.1mM ZnSO4, 30°C",2.09 mM
B9,Km,[1]; [7],1.59 mM
same,kcat/Km,[1]; [7],0.91 mM⁻¹ s⁻¹
B10,Km,[5],74.8 mM
same,kcat/Km,[5],4.2 mM⁻¹ s⁻¹
B11,Km,[6],1.10 mM
same,kcat/Km,[6],8.74 mM⁻¹ s⁻¹
